Molecular target: Orc2-GFP (Drosophila (endogenous in salivary glands)) (UniProt Q24168)
Experiment: FRET or BRET; acceptor photobleaching (543 nm laser) of Rbf1N-RFP (mCherry) with Orc2-GFP (EGFP) as donor, in chromatin-washed, formaldehyde-fixed salivary gland nuclei; ratio of bleached to non-bleached areas in three nuclei

Chain of UniProt Q24168 (Q24168 whole entry): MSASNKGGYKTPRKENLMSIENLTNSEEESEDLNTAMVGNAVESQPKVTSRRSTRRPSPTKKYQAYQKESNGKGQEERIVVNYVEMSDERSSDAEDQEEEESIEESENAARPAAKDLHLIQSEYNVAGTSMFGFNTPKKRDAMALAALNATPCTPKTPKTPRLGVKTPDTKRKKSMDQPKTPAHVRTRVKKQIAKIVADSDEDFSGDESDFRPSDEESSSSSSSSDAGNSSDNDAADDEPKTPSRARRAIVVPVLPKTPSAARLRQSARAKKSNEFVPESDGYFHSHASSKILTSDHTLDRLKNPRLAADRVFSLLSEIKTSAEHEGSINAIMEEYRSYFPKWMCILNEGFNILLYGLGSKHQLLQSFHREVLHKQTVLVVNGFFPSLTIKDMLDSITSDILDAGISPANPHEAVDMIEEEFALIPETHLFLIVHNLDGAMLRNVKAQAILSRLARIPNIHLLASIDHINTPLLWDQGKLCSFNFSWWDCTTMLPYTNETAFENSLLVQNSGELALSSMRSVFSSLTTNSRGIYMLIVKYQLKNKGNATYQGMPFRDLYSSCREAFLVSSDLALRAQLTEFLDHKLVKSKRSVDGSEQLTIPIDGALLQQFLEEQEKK

fold increase of GFP fluorescence after RFP photobleaching: 1.5 to 2 fold
Substance: Rbf1N-RFP (Rbf1 amino acids 1–345 with C-terminal V5 and mCherry, Lys241Glu) (domain or fragment)
